What all share (settings): 20 nM; 72 h
In data set [1] the test system is MCF10A. The data set can be described thus: percent viability (nuclei count relative to siNT); higher = more viable cells. As for the experimental part:
(§1)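 After 72 h, cells were fixed and stained with Hoechst and anti-fibrillarin, and nucleoli per nucleus were counted with CellProfiler. Values are plate-adjusted percent effect for the one-nucleolus and 5+ nucleoli phenotypes, normalised to siNT (0%) and to the positive controls siNOL11 or siKIF11 (100%), as the mean of biological triplicates. Percent viability is the nuclei count relative to siNT.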

Data set [2] concerns MCF10A. The data set can be described thus: 5+ nucleoli phenotype percent effect (relative to siNT 0% and siKIF11 100%); higher = more cells with five or more nucleoli. The protocol:
as §1

Data set [3] has as its system MCF10A. The data set can be described thus: one-nucleolus phenotype percent effect (relative to siNT 0% and siNOL11 100%); higher = more cells with one nucleolus (ribosome biogenesis inhibition). As for the experimental part:
as §1

With GAAGGACCUGCACCUUCG [hsa-miR-6816-3p], in the data set on MCF10A [1], the percent viability was found to be 35.3%. Further, in the data set with MCF10A [2], the “5+ nucleoli phenotype percent effect” value is -36.7%. In addition, in the data set on MCF10A [3], the “one-nucleolus phenotype percent effect” value worked out at 49.8%.
In the case of UGACUGAGCUUCUCCCCACAG [hsa-miR-6857-3p], the percent viability with MCF10A [1] was 34.9%. For the same sequence, the “5+ nucleoli phenotype percent effect” value in the data set on MCF10A [2] was -17.1%. Besides, in the data set with MCF10A [3], the “one-nucleolus phenotype percent effect” value came to 32.8%.
The like results for GAUGGUUGACCAGAGAGCACAC [hsa-miR-758-5p] were, in that order, 56.6%, 60.1% and -21.1%.
Turning to “UAGGUAGAGUGUGAGGAGGAGGUC [hsa-miR-6831-5p]”, the percent viability in the data set on MCF10A [1] was 53.8%. Further, the “5+ nucleoli phenotype percent effect” value with MCF10A [2] came to 27.5%. Besides, in the data set with MCF10A [3], the “one-nucleolus phenotype percent effect” value is -21%.
Consider CCGCCUUCUCUCCUCCCCCAG [hsa-miR-6880-3p], for which the percent viability with MCF10A [1] came out at 117%. Further, the “5+ nucleoli phenotype percent effect” value in the data set on MCF10A [2] is 65.6%. In the data set with MCF10A [3], the “one-nucleolus phenotype percent effect” value is -31.4%.
With “CACAGGACUGACUCCUCACCCCAGUG [hsa-miR-4700-3p]”, in the data set with MCF10A [1], the percent viability is 83.5%. The “5+ nucleoli phenotype percent effect” value with MCF10A [2] turned out to be 43.2%. The “one-nucleolus phenotype percent effect” value with MCF10A [3] is -16%.
With “AUGGGGACAGGGAUCAGCAUGGC [hsa-miR-6810-5p]”, the percent viability in the data set on MCF10A [1] was 25.9%. Further, in the data set with MCF10A [2], the “5+ nucleoli phenotype percent effect” value was -23.9%. The “one-nucleolus phenotype percent effect” value with MCF10A [3] worked out at 45.5%.
On the same counts, the results for UAUGCAUUGUAUUUUUAGGUCC [hsa-miR-586] are 94.9%, 54% and -12.9%.
The like results for CGUCAACACUUGCUGGUUUCCU [hsa-miR-505-3p] were, in that order, 33.8%, -7.84% and 22.4%.
The like results for “CGGAUGAGCAAAGAAAGUGGUU [hsa-miR-1255b-5p]” were, in that order, 64.1%, 45.2% and -12.5%.
For the sequence UCCACUCUCCUGGCCCCCAG [hsa-miR-6777-3p], in the data set on MCF10A [1], the percent viability is 51%. Moreover, the “5+ nucleoli phenotype percent effect” value in the data set with MCF10A [2] was found to be 14.3%. Also, in the data set with MCF10A [3], the “one-nucleolus phenotype percent effect” value is -16.2%.
On the same counts, the results for “CCUCACCCAGCUCUCUGGCCCUCU [hsa-miR-6862-3p]” are 72%, 15.4% and -26.5%.
For GCCGGACAAGAGGGAGG [hsa-miR-4442], in the data set with MCF10A [1], the percent viability was 96%. For the same sequence, the “5+ nucleoli phenotype percent effect” value with MCF10A [2] is 25.4%. In the data set with MCF10A [3], the “one-nucleolus phenotype percent effect” value is -19.9%.
For “UGUCAGUGACUCCUGCCCCUUGGU [hsa-miR-4697-3p]”, the percent viability in the data set on MCF10A [1] came out at 98.6%. Also, the “5+ nucleoli phenotype percent effect” value in the data set with MCF10A [2] was found to be 3.98%. Also, the “one-nucleolus phenotype percent effect” value in the data set with MCF10A [3] is -7.45%.
Take AAAAGUAAUUGCGGUCUUUGGU [hsa-miR-548j]: the percent viability with MCF10A [1] came to 85.9%. In the data set with MCF10A [2], the “5+ nucleoli phenotype percent effect” value worked out at 17%. Moreover, the “one-nucleolus phenotype percent effect” value in the data set with MCF10A [3] is -14.6%.
On the same counts, the results for AUCAUAGAGGAAAAUCCACGU [hsa-miR-376a-3p] are 52.2%, 51.3% and -19.3%.
On the same counts, the results for UAUACCUCAGUUUUAUCAGGUG [hsa-miR-875-5p] are 119%, 32.3% and -18.7%.
On to AGGCAUUGACUUCUCACUAGCU [hsa-miR-1256], for which, in the data set with MCF10A [1], the percent viability is 32.9%. Also, the “5+ nucleoli phenotype percent effect” value in the data set on MCF10A [2] worked out at 2.63%. In addition, in the data set on MCF10A [3], the “one-nucleolus phenotype percent effect” value is 1.57%.
On the same counts, the results for AUCUGUCUCGAUUGUUUCCAG [hsa-miR-6888-3p] are 110%, 6.29% and 23.5%.
“UGGGAAAGAGAAAGAACAAGUA [hsa-miR-6739-5p]”: the percent viability in the data set on MCF10A [1] was 51.5%. Also, the “5+ nucleoli phenotype percent effect” value in the data set on MCF10A [2] came out at 33%. The “one-nucleolus phenotype percent effect” value with MCF10A [3] was -11.2%.
GGAGAAAUUAUCCUUGGUGUGU [hsa-miR-539-5p]: in the data set on MCF10A [1], the percent viability was 55.7%. For the same sequence, in the data set on MCF10A [2], the “5+ nucleoli phenotype percent effect” value was found to be 17.9%. For the same sequence, the “one-nucleolus phenotype percent effect” value in the data set on MCF10A [3] was -14.8%.
As for AGAGGCUGGCCGUGAUGAAUUC [hsa-miR-485-5p], the percent viability with MCF10A [1] came out at 216%. Moreover, the “5+ nucleoli phenotype percent effect” value in the data set with MCF10A [2] is 22.1%. Further, the “one-nucleolus phenotype percent effect” value with MCF10A [3] was -17.3%.
The like results for GCUAAGGAAGUCCUGUGCUCAG [hsa-miR-4521] were, in that order, 83.7%, 34.9% and -19.3%.
On the same counts, the results for “UGCAAAAGUAAUUGCAGUUUUUG [hsa-miR-548g-5p]” are 73.1%, 3.25% and -17%.
On the same counts, the results for UUGCUCACUGUUCUUCCCUAG [hsa-miR-1178-3p] are 50.3%, -31.4% and 0.794%.
As to AACGCCAUUAUCACACUAAAUA [hsa-miR-122-3p], the percent viability with MCF10A [1] is 131%. Besides, the “5+ nucleoli phenotype percent effect” value with MCF10A [2] was 35.4%. In addition, the “one-nucleolus phenotype percent effect” value in the data set on MCF10A [3] is -17.4%.
On to GUGAGACUUCUCUCCCUUCAG [hsa-miR-6864-3p], for which, in the data set with MCF10A [1], the percent viability worked out at 41.4%. For the same sequence, in the data set with MCF10A [2], the “5+ nucleoli phenotype percent effect” value is -9.96%. Besides, in the data set with MCF10A [3], the “one-nucleolus phenotype percent effect” value is 14.5%.
AAUAGCUCAGAAUGUCAGUUCUG [hsa-miR-7705]: the percent viability in the data set on MCF10A [1] is 71.2%. Also, the “5+ nucleoli phenotype percent effect” value in the data set on MCF10A [2] is -21.4%. Further, the “one-nucleolus phenotype percent effect” value with MCF10A [3] was 2.1%.
On the same counts, the results for GUUUAACCUUUUGCCUGUUGG [hsa-miR-552-5p] are 98.1%, 32% and -29.8%.
Take ACCAGGAGGCUGAGGCCCCU [hsa-miR-665]: in the data set on MCF10A [1], the percent viability was found to be 30.2%. Besides, the “5+ nucleoli phenotype percent effect” value in the data set with MCF10A [2] was -29.1%. Further, the “one-nucleolus phenotype percent effect” value in the data set with MCF10A [3] was found to be 40.7%.
On the same counts, the results for GGCUCCUUGGUCUAGGGGUA [hsa-miR-4448] are 45.2%, 20.5% and -9.36%.
As to “CAUCAGCACCCUAUGUCCUUUCU [hsa-miR-3617-3p]”, the percent viability with MCF10A [1] turned out to be 20%. Also, the “5+ nucleoli phenotype percent effect” value in the data set on MCF10A [2] is -20.3%. In addition, the “one-nucleolus phenotype percent effect” value in the data set on MCF10A [3] amounted to 29.5%.
The like results for ACUCAAAACCCUUCAGUGACUU [hsa-miR-616-5p] were, in that order, 93.6%, 21.5% and -11.3%.
On the same counts, the results for ACGUUUGAAUGCUGUACAAGGC [hsa-miR-5707] are 185%, 56.2% and -26.7%.
In the case of “CUGUACAGCCUCCUAGCUUUCC [hsa-let-7a-2-3p]”, the percent viability in the data set with MCF10A [1] stood at 43.3%. For the same sequence, in the data set with MCF10A [2], the “5+ nucleoli phenotype percent effect” value is -34.3%. In the data set on MCF10A [3], the “one-nucleolus phenotype percent effect” value was 2.44%.
UUUCCAUAGGUGAUGAGUCAC [hsa-miR-587]: the percent viability with MCF10A [1] worked out at 86.7%. Moreover, the “5+ nucleoli phenotype percent effect” value with MCF10A [2] is 39.4%. Moreover, in the data set on MCF10A [3], the “one-nucleolus phenotype percent effect” value is -21.6%.
With CAGUGAUUUGAGGAUUAUUGC [hsa-miR-8062], the percent viability in the data set on MCF10A [1] was 63.9%. Further, the “5+ nucleoli phenotype percent effect” value in the data set with MCF10A [2] was -26.5%. Besides, the “one-nucleolus phenotype percent effect” value in the data set with MCF10A [3] came to 7.28%.
On the same counts, the results for UUACAGGCGUGAACCACCGCG [hsa-miR-5095] are 12.8%, -7.36% and 15.8%.
The like results for CGGGGCGGCAGGGGCCUC [hsa-miR-3196] were, in that order, 13.7%, -24.6% and 66%.
The like results for “CAGUGGCCAGAGCCCUGCAGUG [hsa-miR-3677-5p]” were, in that order, 28.6%, -20.3% and 16.6%.
For AGUCAUUGGAGGGUUUGAGCAG [hsa-miR-616-3p], in the data set on MCF10A [1], the percent viability came to 85.2%. Also, the “5+ nucleoli phenotype percent effect” value with MCF10A [2] is -20%. The “one-nucleolus phenotype percent effect” value with MCF10A [3] amounted to 10.7%.
The like results for CGCGGGUCGGGGUCUGCAGG [hsa-miR-3621] were, in that order, 57.8%, -3.13% and -5.2%.
On the same counts, the results for “UGUUCAUUGGAACCCUGCGCAG [hsa-miR-6853-3p]” are 79.8%, 29% and -28.7%.
With GGCGGCGGCGGAGGCGGGGG [hsa-miR-3960], in the data set on MCF10A [1], the percent viability is 47.6%. The “5+ nucleoli phenotype percent effect” value in the data set on MCF10A [2] is -17.5%. Also, the “one-nucleolus phenotype percent effect” value with MCF10A [3] was 26.8%.
On the same counts, the results for GCAGAGUGCAAACAAUUUUGAC [hsa-miR-759] are 90.2%, 51.1% and -27.2%.
On the same counts, the results for “ACAGUAGUCUGCACAUUGGUUA [hsa-miR-199b-3p]” are 92%, 36.1% and -19.3%.
The like results for AGGGACCUGAGUGUCUAAG [hsa-miR-3649] were, in that order, 71%, -0.628% and 9.08%.
In the case of “CUCGGGCGGAGGUGGUUGAGUG [hsa-miR-4750-5p]”, in the data set on MCF10A [1], the percent viability worked out at 40.2%. The “5+ nucleoli phenotype percent effect” value with MCF10A [2] was -7.37%. The “one-nucleolus phenotype percent effect” value in the data set with MCF10A [3] is 14.8%.

For the origin of these results see the supplement of paper PMC10899765.
